US20200188539A1

Molecular target: prostate specific membrane antigen (human (human prostate LNCaP cells)) (UniProt Q04609)
Experiment: cell-based or functional assay

Sequence of prostate specific membrane antigen (human (human prostate LNCaP cells)) (Q04609 whole entry): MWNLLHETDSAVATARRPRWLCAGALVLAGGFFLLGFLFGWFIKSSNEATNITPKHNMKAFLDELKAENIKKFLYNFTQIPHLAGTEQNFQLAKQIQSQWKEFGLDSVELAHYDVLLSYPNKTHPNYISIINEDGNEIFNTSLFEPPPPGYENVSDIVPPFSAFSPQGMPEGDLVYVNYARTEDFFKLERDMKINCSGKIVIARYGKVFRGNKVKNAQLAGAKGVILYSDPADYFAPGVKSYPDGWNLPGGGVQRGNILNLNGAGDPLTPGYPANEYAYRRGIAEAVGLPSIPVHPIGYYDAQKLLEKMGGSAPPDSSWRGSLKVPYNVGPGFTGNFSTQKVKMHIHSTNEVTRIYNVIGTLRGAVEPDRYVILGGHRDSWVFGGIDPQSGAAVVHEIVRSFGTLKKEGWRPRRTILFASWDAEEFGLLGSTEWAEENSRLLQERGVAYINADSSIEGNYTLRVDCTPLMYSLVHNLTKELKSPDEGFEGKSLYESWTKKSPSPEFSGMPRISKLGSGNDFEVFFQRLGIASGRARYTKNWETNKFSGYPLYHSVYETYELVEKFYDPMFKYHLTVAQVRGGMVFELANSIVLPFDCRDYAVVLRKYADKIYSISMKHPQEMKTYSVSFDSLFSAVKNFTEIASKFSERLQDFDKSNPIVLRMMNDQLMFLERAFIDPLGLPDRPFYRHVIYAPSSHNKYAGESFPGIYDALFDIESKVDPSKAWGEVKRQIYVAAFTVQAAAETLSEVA

[DUPA-6-Ahx-Lys(DOTA)-6-Ahx-RM2] (peptide)
IC50 (NAALADase assay in human prostate LNCaP cells, [N-acetyl aspartyl 3H-glutamate]): 9.3 nM
IC50 LNCaP cells (NAALADase assay, [N-acetyl aspartyl 3H-glutamate] substrate, LNCaP homogenized cell membranes): 10.5 nM
